{"source": "IntAct's records for PubMed 31036956", "parents": {"B1": {"name": "Proto-oncogene Wnt-3 (Homo sapiens), P56703 (parent)", "chain": "MEPHLLGLLLGLLLGGTRVLAGYPIWWSLALGQQYTSLGSQPLLCGSIPGLVPKQLRFCRNYIEIMPSVAEGVKLGIQECQHQFRGRRWNCTTIDDSLAIFGPVLDKATRESAFVHAIASAGVAFAVTRSCAEGTSTICGCDSHHKGPPGEGWKWGGCSEDADFGVLVSREFADARENRPDARSAMNKHNNEAGRTTILDHMHLKCKCHGLSGSCEVKTCWWAQPDFRAIGDFLKDKYDSASEMVVEKHRESRGWVETLRAKYSLFKPPTERDLVYYENSPNFCEPNPETGSFGTRDRTCNVTSHGIDGCDLLCCGRGHNTRTEKRKEKCHCIFHWCCYVSCQECIRIYDVHTCK"}}}
{"variants_of": "B1", "details": "with lrp6_human LRP6, O75581"}
{"variant": "R253E", "effect of a mutation on the interaction": "disrupting interaction"}
